Reference: paper PMC4692269
Numbering of substitutions follows the chain as printed.

B1: PGT124 (mature bnAb of the PGT121 family) (Fab, V domains shown)
VH: QVQLQESGPGLVRPSETLSVTCIVSGGSISNYYWTWIRQSPGKGLEWIGYISDRETTTYNPSLNSRAVISRDTSKNQLSLQLRSVTTADTAIYFCATARRGQRIYGVVSFGEFFYYYYMDVWGKGTAVTVSS
VL: SYVSPLSVALGETARISCGRQALGSRAVQWYQHKPGQAPILLIYNNQDRPSGIPERFSGTPDINFGTTATLTISGVEVGDEADYYCHMWDSRSGFSWSFGGATRLTVL
B2: 32H+3L Fab (inferred intermediate of the PGT124 branch) (Fab, V domains shown)
VH: B1 VH with R13K, N64K, A67V, Q81K, R83N, T87A, F94Y
VL: SYVLTQPSQLSVAPGETARISCGGRSLGSRAVQWYQQKPGQAPVLVIYNNQDRPSGIPERFSGSPDSNFGTTATLTISRVEAGDEADYYCHMWDSRSAINWVFGGGTKLTVL
B3: 9H+3L Fab (inferred intermediate of the PGT122 branch) (Fab, V domains shown)
VH: QVQLQESGPGLVKPSETLSLTCSVSGASISDHYWSWIRQSPGKGLEWIGYVYDSGDTNYNPSLKSRVNLSLDTSKNQVSLSLTAVTAADSAIYYCARTQHGRRIYGIVAFREWFTYFYMDVWGQGTPVTVSS
VL: B2 VL
B4: 3H+3L Fab (inferred early precursor of the PGT121 family) (Fab, V domains shown)
VH: QVQLQESGPGLVKPSETLSLTCTVSGGSISNYYWSWIRQSPGKGLEWIGYISDSESTNYNPSLKSRVIISVDTSKNQLSLKLNSVTAADSAIYYCARAQQGKRIYGMVSFGEFFYYYYMDVWGKGTTVTVSS
VL: B2 VL

Key:
[1] = molecular target: BG505 SOSIP.664 trimer, wild type, produced in 293S cells (HIV-1 (clade A strain BG505)) (UniProt Q2N0S6); experiment: ITC
[2] = molecular target: BG505 SOSIP.664-N137A trimer, produced in 293S cells (HIV-1 (clade A strain BG505)); experiment: ITC

| Molecule | Kd [1] [nM] | fold higher affinity against 32H+3L on the same trimer [1] [fold] | fold enhanced affinity against its binding to the wild-type trimer [2] [fold] | Kd [2] [nM] |
| --- | --- | --- | --- | --- |
| PGT124 (mature bnAb of the PGT121 family) (Fab) | 32 | 13 | – | – |
| B1 | – | – | 5 | – |
| B2 | – | – | 16 | – |
| B3 | – | – | 11 | – |
| B4 | – | – | 15 | 35 |
